Assay results as given in paper PMC3629177 (PLoS ONE, 2013).
Changes are numbered by the printed parent chain.

B1: HuMab 16_(L-40) (antibody, V domains shown)
VH: EVQLVQSGGGLGHPGGSLRLSCAGSGFTFSSYSMHWLRQAPGKGLKWVSAIGTAGGTYYADSVKGRFTISRDNAKNSFYLQMNSLRAEDMAVYYCAREYFFGSGNYGYWGQGTLVTASS
VL: not shown
B2: HuMab 37_(L-63) (cloned, IgG1) (antibody, V domains shown)
VH: EVQLVQSGGGLVHPGGSLRLSCAGSGFTFSRYALHWVRQAPGKGLEWVSAIGIGGGTFYADSVKGRFTISRDNAKNSLYLQMNSLRAEDMAVYYCARDTYYDFFDAFDIWGQGTMVTVSS
VL: DIQMTQSPSSLSASVGDRVTITCRASQGISSWLAWYQQKPEKAPKSLIYAASSLQSGVPSRFSGSGSGTDFTLTISSLQPEDFATYYCQQYDSYPLTFGGGTKVEIK
B3: HuMab 11_(L-80) (antibody, V domains shown)
VH: QVQLVESGGGVVQPGRSLRLSCAASGFTFSNYGIHWVRQAPGKGLEWVAIIWHDGSNSYYVDSVKGRFTMSRDNSKNTVYLQMNSLRAEDTAVYFCARIIGGAFDIWGQGTMVTVSS
VL: B2 VL with D92N, L96I, G100Q, K103R, V104L
B4: HuMab 56c (antibody, V domains shown)
VH: QVQVVQSGAEVKKPGSSVKVSCKASGGTFSSYAISWVRQAPGQGLEWMGRIIPILGTAKYAQKFQGRVTIIADKSTSTAYMELSSLRSEDTAVYYCARDQDYYGMDVWGQGTTVTVSS
VL: B2 VL with L11V, Q38H, E41G, S46L, Y91T, D92N, S93N, Y94F, L96W, G100Q
B5: HuMab 33_(L-112) (antibody, V domains shown)
VH: EVQLVESGGGLVQPGGSLRLSCAASGFTFSRYWMSWVRQAPGKGLEWMANIKQDGSETHYVDSVKGRFTISRDNAKNSLYLQMNSLRAEDTAVYYCAIGDYWGQGTLVTVSS
VL: B2 VL with G28D, D92K
B6: HuMab 22c (antibody, V domains shown)
VH: QVQLVESGGGVVQPGRSLRLSCAASGFTFRSYGMHWVRQAPGKGLEWVTLIWYDGSNKYYADSVKGRFTISRDNSKNTLYLQMNSLRVEDTAVYYCAREGFNWDAFDIWGQGTMVTVSS
VL: EIVLTQSPGTLSLSPGERATLSCRASQSVRISYLAWYQQKPGQAPRLLIYGTFSRATGIPDRFSGSGSGTDFTLTISRLEPEDFAVYYCQQYGSSMYTFGQGTKLEIK
B7: HuMab 155c (antibody, V domains shown)
VH: EVQLVQSGAEVKKPGESLKISCKGSGYSFTSYWIGWVRQMPGKGLEWMGIIYPGDSDTRYSPSFQGQVTISADKSISTAYLQWSSLKASDTAMYYCARQGSGWYGNYFDYWGQGTLVTVSS
VL: B6 VL with V29F, R30S, I31R, S32G, T52A, F53S, A56V, G93D, M96P

Each binder was assayed against T1, hSOD1-A4V-myc (Homo sapiens, UniProt P00441, point mutant) (assay: co-IP; soluble lysate of transfected HEK-293T/17 cells (PBS + 0.1% Triton X-100) immunoprecipitated with 2 µg HuMab and protein A sepharose; immunoblot with anti-myc 9E10). Details: one partner purified.
T1 construct: human SOD1 with the ALS mutation A4V; source: HEK-293T/17, transiently transfected (pcDNA), in lysate; not shown: myc, C-terminal, kept

| binding result | Binder |
| --- | --- |
| binds | B1 |
| binds | B2 |
| binds | B3 |
| binds | B4 |
| binds | B5 |
| binds | B6 |
| binds | B7 |
